Consider one molecule from publication PMC3787081, “The Heteromultimeric Debranching Enzyme Involved in Starch Synthesis in Arabidopsis Requires Both Isoamylase1 and Isoamylase2 Subunits for Complex Stability and Activity” (PLoS ONE, 2013).

This assay has as its target T1, ISA2-TAP (ISA2 with a C-terminal tandem affinity purification tag) (Arabidopsis, UniProt Q8L735 71-882).
T1 construct: Isoamylase 2 (ISA2) of Arabidopsis thaliana; the chloroplast transit peptide is probably removed in the plant (surmised); also called TAP-tagged ISA2; ISA2-TAP tagged protein; source: Arabidopsis isa2-1 plants transformed with 35S::ISA2-TAP, leaf extract
T1 sequence (looked up): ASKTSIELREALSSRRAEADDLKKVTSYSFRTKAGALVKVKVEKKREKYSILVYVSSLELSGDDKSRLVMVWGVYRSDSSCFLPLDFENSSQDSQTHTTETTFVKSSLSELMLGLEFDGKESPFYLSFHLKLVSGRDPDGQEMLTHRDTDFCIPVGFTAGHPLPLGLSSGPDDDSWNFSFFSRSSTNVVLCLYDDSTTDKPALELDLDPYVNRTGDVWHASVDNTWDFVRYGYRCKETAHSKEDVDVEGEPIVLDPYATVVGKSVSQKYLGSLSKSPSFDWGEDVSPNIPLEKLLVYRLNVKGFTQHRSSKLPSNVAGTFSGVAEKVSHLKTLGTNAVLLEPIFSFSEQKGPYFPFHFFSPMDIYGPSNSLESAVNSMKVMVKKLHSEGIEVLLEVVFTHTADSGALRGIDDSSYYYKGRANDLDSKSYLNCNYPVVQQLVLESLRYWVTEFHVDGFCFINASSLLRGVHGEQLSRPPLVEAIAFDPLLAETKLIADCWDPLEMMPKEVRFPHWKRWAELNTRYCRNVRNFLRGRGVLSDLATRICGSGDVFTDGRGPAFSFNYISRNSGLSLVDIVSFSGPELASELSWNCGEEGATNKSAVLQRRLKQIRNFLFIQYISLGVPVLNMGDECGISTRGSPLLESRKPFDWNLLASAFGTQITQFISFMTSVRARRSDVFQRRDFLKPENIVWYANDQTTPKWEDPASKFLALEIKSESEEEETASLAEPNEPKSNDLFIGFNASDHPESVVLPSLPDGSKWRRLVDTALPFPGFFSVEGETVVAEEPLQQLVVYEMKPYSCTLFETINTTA
Description: affinity purification with mass spectrometry; tandem affinity purification of ISA2-TAP from leaf extracts (IgG-Sepharose, TEV elution, Calmodulin Sepharose with 2 mM CaCl2, EGTA elution); SDS-PAGE, silver stain, in-gel tryptic digestion, LC-MS/MS; wild-type extracts as control. The conditions noted are these: partners not purified.

B1: Isoamylase1 (ISA1), Arabidopsis, endogenous (enzyme, UniProt O04196 44-783, looked up)
chain: AKDRRSNEAENIAVVEKPLKSDRFFISDGLPSPFGPTVRDDGVNFSVYSTNSVSATICLISLSDLRQNKVTEEIQLDPSRNRTGHVWHVFLRGDFKDMLYGYRFDGKFSPEEGHYYDSSNILLDPYAKAIISRDEFGVLGPDDNCWPQMACMVPTREEEFDWEGDMHLKLPQKDLVIYEMHVRGFTRHESSKIEFPGTYQGVAEKLDHLKELGINCIELMPCHEFNELEYYSYNTILGDHRVNFWGYSTIGFFSPMIRYASASSNNFAGRAINEFKILVKEAHKRGIEVIMDVVLNHTAEGNEKGPIFSFRGVDNSVYYMLAPKGEFYNYSGCGNTFNCNHPVVRQFILDCLRYWVTEMHVDGFRFDLGSIMSRSSSLWDAANVYGADVEGDLLTTGTPISCPPVIDMISNDPILRGVKLIAEAWDAGGLYQVGMFPHWGIWSEWNGKFRDVVRQFIKGTDGFSGAFAECLCGSPNLYQGGRKPWHSINFICAHDGFTLADLVTYNNKNNLANGEENNDGENHNYSWNCGEEGDFASISVKRLRKRQMRNFFVSLMVSQGVPMIYMGDEYGHTKGGNNNTYCHDNYMNYFRWDKKEEAHSDFFRFCRILIKFRDECESLGLNDFPTAKRLQWHGLAPEIPNWSETSRFVAFSLVDSVKKEIYVAFNTSHLATLVSLPNRPGYRWEPFVDTSKPSPYDCITPDLPERETAMKQYRHFLDANVYPMLSYSSIILLLSPIKDP
notes: Isoamylase 1 (ISA1) of Arabidopsis thaliana, endogenous protein in soluble leaf extracts; Chloroplast protein; also called AtISA1; source: endogenous, Arabidopsis leaf extracts (wild type and ISA2-TAP plants)
For B1, the “stoichiometry N” value worked out at 1.
